Results reported in patent publication US20240301085A1.

Key:
[1] = biological target: human GPC3-His protein (human) (UniProt P51654); assay: ELISA, coated human GPC3-His, antibody 10 nM
[2] = biological target: monkey GPC3-His protein (monkey); assay: ELISA, coated monkey GPC3-His, antibody 0.01 nM
[3] = biological target: murine GPC3-His protein (murine) (UniProt Q8CFZ4); assay: ELISA, coated murine GPC3-His, antibody 10 nM
[4] = biological target: human GPC3-His protein (human) (UniProt P51654); assay: ELISA, coated human GPC3-His, antibody 0.001 nM
[5] = biological target: human GPC3-His protein (human) (UniProt P51654); assay: ELISA, coated human GPC3-His, antibody 0.0001 nM
[6] = biological target: monkey GPC3-His protein (monkey); assay: ELISA, coated monkey GPC3-His, antibody 100 nM
[7] = biological target: human GPC3-His protein (human) (UniProt P51654); assay: ELISA, coated human GPC3-His, antibody 0.1 nM
[8] = biological target: Polypeptide GC3pep of human GPC3 (Ala524-Lys563) (human); assay: ELISA, coated GC3pep, antibody 100 nM
Sequence of Polypeptide GC3pep of human GPC3 (Ala524-Lys563) (human) (peptide, as listed by the source): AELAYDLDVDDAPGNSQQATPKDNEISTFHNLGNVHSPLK

[9] = biological target: monkey GPC3-His protein (monkey); assay: ELISA, coated monkey GPC3-His, antibody 100 nM; remark: listed apart in the source
[10] = biological target: human GPC3-His protein (human) (UniProt P51654); assay: ELISA, coated human GPC3-His, antibody 0.01 nM
[11] = biological target: monkey GPC3-His protein (monkey); assay: ELISA, coated monkey GPC3-His, antibody 0.001 nM
[12] = biological target: human GPC3-His protein (human) (UniProt P51654); assay: ELISA, coated human GPC3-His, antibody 1 nM
[13] = biological target: human GPC3, full length, on cells (human) (UniProt P51654); assay: FACS on CHO-K1-human GPC3 cells
[14] = biological target: murine GPC3-His protein (murine) (UniProt Q8CFZ4); assay: ELISA, coated murine GPC3-His, antibody 0.0001 nM
[15] = biological target: Polypeptide GC3pep of human GPC3 (Ala524-Lys563) (human); assay: ELISA, coated GC3pep, antibody 1 nM
[16] = biological target: human GPC3-His protein (human) (UniProt P51654); assay: ELISA, coated human GPC3-His, antibody 100 nM
[17] = biological target: Polypeptide GC3pep of human GPC3 (Ala524-Lys563) (human); assay: ELISA, coated GC3pep, antibody 10 nM
[18] = biological target: Polypeptide GC3pep of human GPC3 (Ala524-Lys563) (human); assay: ELISA, coated GC3pep, antibody 0.001 nM
[19] = biological target: human GPC3-His protein (human) (UniProt P51654); assay: ELISA, coated human GPC3-His, antibody 1 nM; remark: listed apart in the source
[20] = biological target: murine GPC3-His protein (murine) (UniProt Q8CFZ4); assay: ELISA, coated murine GPC3-His, antibody 10 nM; remark: listed apart in the source
[21] = biological target: human GPC3-His protein (human) (UniProt P51654); assay: ELISA, coated human GPC3-His, antibody 0.1 nM; remark: listed apart in the source
[22] = biological target: Polypeptide GC3pep of human GPC3 (Ala524-Lys563) (human); assay: ELISA, coated GC3pep, antibody 0.01 nM
[23] = biological target: murine GPC3-His protein (murine) (UniProt Q8CFZ4); assay: ELISA, coated murine GPC3-His, antibody 0.01 nM
[24] = biological target: murine GPC3-His protein (murine) (UniProt Q8CFZ4); assay: ELISA, coated murine GPC3-His, antibody 0.0001 nM; remark: listed apart in the source
[25] = biological target: monkey GPC3-His protein (monkey); assay: ELISA, coated monkey GPC3-His, antibody 0.1 nM
[26] = biological target: monkey GPC3-His protein (monkey); assay: ELISA, coated monkey GPC3-His, antibody 1 nM
[27] = biological target: human GPC3, full length, on cells (human) (UniProt P51654); assay: FACS on CHO-K1 clone CHOK1-hGPC3.3E9
[28] = biological target: monkey GPC3-His protein (monkey); assay: ELISA, coated monkey GPC3-His, antibody 10 nM
[29] = biological target: human GPC3-His protein (human) (UniProt P51654); assay: ELISA, coated human GPC3-His, antibody 0.01 nM; remark: listed apart in the source
[30] = biological target: human GPC3, full length, on cells (human) (UniProt P51654); assay: FACS on HepG2 cells
[31] = biological target: murine GPC3-His protein (murine) (UniProt Q8CFZ4); assay: ELISA, coated murine GPC3-His, antibody 0.01 nM; remark: listed apart in the source
[32] = biological target: human GPC3-His protein (human) (UniProt P51654); assay: ELISA, coated human GPC3-His, antibody 10 nM; remark: listed apart in the source
[33] = biological target: murine GPC3-His protein (murine) (UniProt Q8CFZ4); assay: ELISA, coated murine GPC3-His, antibody 1 nM
[34] = biological target: murine GPC3-His protein (murine) (UniProt Q8CFZ4); assay: ELISA, coated murine GPC3-His, antibody 100 nM
[35] = biological target: Polypeptide GC3pep of human GPC3 (Ala524-Lys563) (human); assay: ELISA, coated GC3pep, antibody 0.1 nM
[36] = biological target: murine GPC3-His protein (murine) (UniProt Q8CFZ4); assay: ELISA, coated murine GPC3-His, antibody 0.001 nM
[37] = biological target: murine GPC3-His protein (murine) (UniProt Q8CFZ4); assay: ELISA, coated murine GPC3-His, antibody 100 nM; remark: listed apart in the source
[38] = biological target: human GPC3, full length, on cells (human) (UniProt P51654); assay: FACS on CHO-K1 clone CHOK1-hGPC3.1C3
[39] = biological target: monkey GPC3-His protein (monkey); assay: ELISA, coated monkey GPC3-His, antibody 0.1 nM; remark: listed apart in the source
[40] = biological target: human GPC3-His protein (human) (UniProt P51654); assay: ELISA, coated human GPC3-His, antibody 0.0001 nM; remark: listed apart in the source
[41] = biological target: Polypeptide GC3pep of human GPC3 (Ala524-Lys563) (human); assay: ELISA, coated GC3pep, antibody 100 nM; remark: listed apart in the source
[42] = biological target: monkey GPC3-His protein (monkey); assay: ELISA, coated monkey GPC3-His, antibody 1 nM; remark: listed apart in the source
[43] = biological target: Polypeptide GC3pep of human GPC3 (Ala524-Lys563) (human); assay: ELISA, coated GC3pep, antibody 0.0001 nM
[44] = biological target: murine GPC3-His protein (murine) (UniProt Q8CFZ4); assay: ELISA, coated murine GPC3-His, antibody 0.001 nM; remark: listed apart in the source
[45] = biological target: monkey GPC3-His protein (monkey); assay: ELISA, coated monkey GPC3-His, antibody 0.0001 nM
[46] = biological target: monkey GPC3-His protein (monkey); assay: ELISA, coated monkey GPC3-His, antibody 0.01 nM; remark: listed apart in the source
[47] = biological target: human GPC3, full length, on cells (human) (UniProt P51654); assay: FACS on CHO-K1 clone CHOK1-hGPC3.2B5
[48] = biological target: monkey GPC3-His protein (monkey); assay: ELISA, coated monkey GPC3-His, antibody 10 nM; remark: listed apart in the source
[49] = biological target: monkey GPC3, full length, on HEK293T cells (monkey); assay: FACS on HEK293T-monkey GPC3 cells
[50] = biological target: monkey GPC3-His protein (monkey); assay: ELISA, coated monkey GPC3-His, antibody 0.0001 nM; remark: listed apart in the source
[51] = biological target: human GPC3, full length, on cells (human) (UniProt P51654); assay: FACS on HepG2 cells, control in the row of Y035
[52] = biological target: human GPC3-His protein (human) (UniProt P51654); assay: ELISA, coated human GPC3-His, antibody 0.001 nM; remark: listed apart in the source
[53] = biological target: monkey GPC3-His protein (monkey); assay: ELISA, coated monkey GPC3-His, antibody 0.001 nM; remark: listed apart in the source
[54] = biological target: human GPC3, full length, on cells (human) (UniProt P51654); assay: FACS on HepG2 cells, control in the row of T2-23
[55] = biological target: human GPC3-His protein (human) (UniProt P51654); assay: ELISA, coated human GPC3-His, antibody 100 nM; remark: listed apart in the source
[56] = biological target: murine GPC3-His protein (murine) (UniProt Q8CFZ4); assay: ELISA, coated murine GPC3-His, antibody 0.1 nM

Sequence of UniProt Q8CFZ4 (Q8CFZ4 25-558 limits assumed): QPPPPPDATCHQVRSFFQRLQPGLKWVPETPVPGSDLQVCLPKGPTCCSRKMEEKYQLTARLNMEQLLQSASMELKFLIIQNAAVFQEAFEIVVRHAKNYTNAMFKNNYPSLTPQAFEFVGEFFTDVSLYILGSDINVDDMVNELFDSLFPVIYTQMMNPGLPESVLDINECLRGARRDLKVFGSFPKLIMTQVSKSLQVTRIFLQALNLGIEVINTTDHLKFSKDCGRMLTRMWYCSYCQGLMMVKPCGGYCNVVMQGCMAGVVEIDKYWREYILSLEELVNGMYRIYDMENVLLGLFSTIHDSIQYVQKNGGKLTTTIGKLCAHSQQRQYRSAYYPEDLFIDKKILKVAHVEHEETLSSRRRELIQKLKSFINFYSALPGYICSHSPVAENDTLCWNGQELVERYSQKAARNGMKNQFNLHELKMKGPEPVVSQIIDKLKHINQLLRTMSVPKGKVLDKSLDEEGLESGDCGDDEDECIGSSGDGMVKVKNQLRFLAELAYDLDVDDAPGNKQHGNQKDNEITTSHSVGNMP

OD450 [1]: 0.05
OD450 [2]: 0.05
OD450 [3]: 0.07
OD450 [4]: 0.048
OD450 [5]: 0.047
OD450 [6]: 0.19
OD450 [7]: 0.09
OD450 [8]: 0.069
OD450 [9]: 0.056
OD450 [10]: 0.1
OD450 [11]: 0.04
OD450 [12]: 0.048
Max MFI [13]: 82
OD450 [14]: 0.05
OD450 [15]: 0.04
OD450 [16]: 0.09
OD450 [17]: 0.04
OD450 [18]: 0.046
OD450 [19]: 0.09
OD450 [20]: 0.055
OD450 [21]: 0.05
OD450 [22]: 0.046
OD450 [23]: 0.05
OD450 [24]: 0.049
OD450 [25]: 0.04
OD450 [26]: 0.05
Mean fluorescence intensity of cells [27]: 19.3
OD450 [28]: 0.08
OD450 [29]: 0.048
Max MFI [30]: 110
OD450 [31]: 0.052
OD450 [32]: 0.1
OD450 [33]: 0.05
OD450 [34]: 0.105
OD450 [35]: 0.04
OD450 [36]: 0.05
OD450 [37]: 0.08
Mean fluorescence intensity of cells [38]: 19.3
OD450 [39]: 0.045
OD450 [40]: 0.09
OD450 [41]: 0.06
OD450 [42]: 0.044
OD450 [43]: 0.06
OD450 [44]: 0.051
OD450 [45]: 0.05
OD450 [46]: 0.044
Mean fluorescence intensity of cells [47]: 19.3
OD450 [48]: 0.047
Max MFI [49]: 95
OD450 [50]: 0.048
Mean fluorescence intensity of cells [51]: 137
OD450 [52]: 0.09
OD450 [53]: 0.044
Mean fluorescence intensity of cells [54]: 137
OD450 [55]: 0.072
OD450 [56]: 0.05
Substance: human IgG1 subtype control (antibody)
